Test results from article doi:10.1101/467571.

T1: rDorsal-RHD (Litopenaeus vannamei, UniProt D2E9Y3 74-253)
T1 sequence: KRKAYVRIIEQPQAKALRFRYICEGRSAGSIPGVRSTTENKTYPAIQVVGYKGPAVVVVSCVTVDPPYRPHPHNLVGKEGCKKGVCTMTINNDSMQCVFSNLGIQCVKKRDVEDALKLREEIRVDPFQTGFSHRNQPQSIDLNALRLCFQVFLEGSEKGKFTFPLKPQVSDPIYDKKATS

B1: Mut-bio-probe 1 (dsDNA)
DNA 1: TCTGTGTGTGTGTCCTTTACGGAGAAAACATTATCAGA
DNA 2: TCTGATAATGTTTTCTCCGTAAAGGACACACACACAGA
B2: probe 1 (BigPEN kB1) (dsDNA)
DNA 1: TCTGTGTGTGTGTCCTTTAGTGTTTTTCGCCGGAGAAAACATTATCAGAC
DNA 2: GTCTGATAATGTTTTCTCCGGCGAAAAACACTAAAGGACACACACACAGA
B3: unlabeled probe 1 (dsDNA)
DNA 1: TCTGTGTGTGTGTCCTTTAGTGTTTTTCGCCGGAGAAAACATTATCAGAC
DNA 2: GTCTGATAATGTTTTCTCCGGCGAAAAACACTAAAGGACACACACACAGA

Key:
[1] = target: T1, rDorsal-RHD; experiment: EMSA
[2] = target: rTrx (UniProt P0AA25 1-109); experiment: EMSA
Chain of rTrx (P0AA25 whole entry): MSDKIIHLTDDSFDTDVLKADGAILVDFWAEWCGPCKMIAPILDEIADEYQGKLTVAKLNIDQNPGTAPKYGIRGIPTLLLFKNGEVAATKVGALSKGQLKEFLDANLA

[3] = target: T1, rDorsal-RHD; experiment: competition

Binder	binding result [1]	binding result [2]	binding result [3]
B1	no binding	–	–
B2	binds	no binding	–
B3	–	–	binds
